Data: patent US8673311B2 (priority 2009, dated 2014)

Test system: PY79 spores
Format: physicochemical, B. subtilis

Q: With “listeriolysin from Listeria monocytogenes: immunogen shown to bind to the spore” as the substance, how does the “binding of other immunogens to the spore” value read?
A: can bind to the spore in a pH-dependant manner
